Results reported in patent publication US20100068766A1, “COMPOSITION FOR CLEAVING AND/OR CONNECTING SINGLE STRAND DNA” (WASEDA UNIVERSITY, priority 2007, published 2010).

B1: Ev1 protein: human Ev1 protein (NCBI accession No. AAF21709), recombinant from E. coli, His tag removed (protein)
chain: MATSEQSICQARASVMVYDDTSKKWVPIKPGQQGFSRINIYHNTASNTFRVVGVKLQDQQVVINYSIVKGLKYNQATPTFHQWRDARQVYGLNFASKEEATTFSNAMLFALNIMNSQEGGPSSQRQVQNGPSPDEMDIQRRQVMEQHQQQRQESLERRTSATGPILPPGHPSSAASAPVSCSGPPPPPPPPVPPPPTGATPPPPPPLPAGGAQGSSHDESSMSGLAAAIAGAKLRRVQRPEDASGGSSPSGTSKSDANRASSGGGGGGLMEEMNKLLAKRRKAASQSDKPAEKKEDESQMEDPSTSPSPGTRAASQPPNSSEAGRKPWERSNSVEKPVSSILSRTPSVAKSPEAKSPLQSQPHSRMKPAGSVNDMALDAFDLDRMKQEILEEVVRELHKVKEEIIDAIRQELSGISTT
B2: DNA topoisomerase type I protein derived from a human: hsTopoI (human, Jena Bioscience) (protein, UniProt P11387 2-765, looked up)
DNA topoisomerase 1: SGDHLHNDSQIEADFRLNDSHKHKDKHKDREHRHKEHKKEKDREKSKHSNSEHKDSEKKHKEKEKTKHKDGSSEKHKDKHKDRDKEKRKEEKVRASGDAKIKKEKENGFSSPPQIKDEPEDDGYFVPPKEDIKPLKRPRDEDDADYKPKKIKTEDTKKEKKRKLEEEEDGKLKKPKNKDKDKKVPEPDNKKKKPKKEEEQKWKWWEEERYPEGIKWKFLEHKGPVFAPPYEPLPENVKFYYDGKVMKLSPKAEEVATFFAKMLDHEYTTKEIFRKNFFKDWRKEMTNEEKNIITNLSKCDFTQMSQYFKAQTEARKQMSKEEKLKIKEENEKLLKEYGFCIMDNHKERIANFKIEPPGLFRGRGNHPKMGMLKRRIMPEDIIINCSKDAKVPSPPPGHKWKEVRHDNKVTWLVSWTENIQGSIKYIMLNPSSRIKGEKDWQKYETARRLKKCVDKIRNQYREDWKSKEMKVRQRAVALYFIDKLALRAGNEKEEGETADTVGCCSLRVEHINLHPELDGQEYVVEFDFLGKDSIRYYNKVPVEKRVFKNLQLFMENKQPEDDLFDRLNTGILNKHLQDLMEGLTAKVFRTYNASITLQQQLKELTAPDENIPAKILSYNRANRAVAILCNHQRAPPKTFEKSMMNLQTKIDAKKEQLADARRDLKSAKADAKVMKDAKTKKVVESKKKAVQRLEEQLMKLEVQATDREENKQIALGTSKLNYLDPRITVAWCKKWGVPIEKIYNKTQREKFAWAIDMADEDYEF
B3: Ev1 (1-221) mutant: Ev1 fragment of amino acid residues 1-221, comprises EVH1 and a proline-rich domain (protein, UniProt Q9UI08 1-221, looked up, fragment)
chain: MSEQSICQARASVMVYDDTSKKWVPIKPGQQGFSRINIYHNTASNTFRVVGVKLQDQQVVINYSIVKGLKYNQATPTFHQWRDARQVYGLNFASKEEATTFSNAMLFALNIMNSQEGGPSSQRQVQNGPSPDEMDIQRRQVMEQHQQQRQESLERRTSATGPILPPGHPSSAASAPVSCSGPPPPPPPPVPPPPTGATPPPPPPLPAGGAQGSSHDESSMS

What was measured:
[1] = system: φ×174 circular single-stranded DNA; test: DNA binding assay (single-stranded DNA); settings: Ev1 0.2-3.2 μM; 40 μM φ×174 circular single-stranded DNA; 37° C., 15 minutes
Experimental: (§1) Subsequently, the binding ability of the Ev1 protein to DNA was analyzed. The Ev1 protein was mixed with a φ×174 circular single-stranded DNA (40 μM) or a φ×174 supercoiled double-stranded DNA (10 μM) in 10 μl of a reaction solution (20 mM HEPES (pH 7.5), 1 mM DTT, 1 mM MgCl2, and 100 mg/ml BSA), and the mixture was then reacted at 37° C. for 15 minutes. The reaction product was analyzed by 0.8% agarose gel electrophoresis (3 V/cm, 3 hours) using a 1×TAE (40 mM Tris-acetate and 1 mM EDTA) buffer. A band of DNA was stained with ethidium bromide (FIG. 3).

[2] = system: φ×174 supercoiled double-stranded DNA; test: DNA binding assay (double-stranded DNA); settings: Ev1 0.2-3.2 μM; 10 μM φ×174 supercoiled double-stranded DNA; 37° C., 15 minutes
Experimental: as §1

[3] = system: φ×174 supercoiled double-stranded DNA; test: Activity of Ev1 on supercoiled double-stranded DNA; format: biochemical; settings: 4 μM Ev1; 10 μM φ×174 supercoiled and nicked double-stranded DNA
Experimental: Lanes 1 and 2 indicate the results obtained using a φ×174 circular single-stranded DNA. Lanes 3 and 4 indicate the results obtained using a M13 mp18 circular single-stranded DNA. In addition, lanes 1 and 3 indicate the results of control experiments in which no Ev1 protein was used, and lanes 2 and 4 indicate the results of experiments in which the Ev1 protein was used. […] A φ×174 circular single-stranded DNA (20 μM, lanes 1-3), or φ×174 supercoiled and nicked double-stranded DNA molecules (10 μM, lanes 4-6) were used to examine the influence of Ev1 (4 μM, lanes 2 and 5) and Escherichia coli-derived topoisomerase type I (5 units, lanes 3 and 6). Lanes 1 and 4 indicate the results of control experiments in which no Ev1 protein was used.
(§2) A φ×174 or M13 mp18 circular single-stranded DNA (20 μM) was incubated at 37° C. in 20 mM HEPES-NaOH (pH 7.5), 1 mM DTT, 1 mM MgCl2, and 0.1 mg/ml BSA. Thereafter, the sample was subjected to a deproteination treatment with 0.2% SDS and 1.3 mg/ml proteinase K. The obtained product was separated by 0.9% agarose gel electrophoresis, and a DNA band was then stained with SYBR Gold (Invitrogen).

[4] = system: φ×174 or M13 mp18 circular single-stranded DNA; test: Assay of catenation of single-stranded DNA; format: biochemical; settings: 4 μM protein; 20 μM circular single-stranded DNA; 1 mM MgCl2; 37° C.
Experimental: as §2

[5] = target: T1, Rad51B protein / Ev1 protein (Homo sapiens, UniProt O15315+Q9UI08); test: Pull-down assay using Ev1- or Rad51B-bound beads; format: binding; settings: Affi-Gel 10 beads, 10 μg protein, room temperature, 150 minutes
T1 construct: in accordance with the protocols used in purification of the entire-length Ev1 protein; 6xHis (N, cleaved yes); made in house; host or cells: Ev1: E. coli BL21 (DE3) codon plus-RP
T1 sequence (Q9UI08 1-418 isoform Q9UI08-2): B1 chain
T1 sequence (O15315 1-350 isoform O15315-1): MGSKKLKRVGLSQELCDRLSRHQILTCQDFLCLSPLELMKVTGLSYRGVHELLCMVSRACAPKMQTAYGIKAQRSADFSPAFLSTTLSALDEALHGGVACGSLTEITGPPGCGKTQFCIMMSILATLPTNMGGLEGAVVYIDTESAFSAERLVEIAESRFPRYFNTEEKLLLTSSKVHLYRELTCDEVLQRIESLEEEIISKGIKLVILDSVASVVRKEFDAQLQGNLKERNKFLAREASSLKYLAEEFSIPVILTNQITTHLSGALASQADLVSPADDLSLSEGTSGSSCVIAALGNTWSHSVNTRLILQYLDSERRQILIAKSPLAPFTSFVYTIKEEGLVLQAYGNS
Experimental: Thereafter, the obtained mixture was incubated at 4° C. overnight. The Affi-Gel 10-Ev1 beads were washed 3 times with 500 μl of washing buffer 1 (20 mM potassium phosphate (pH 8.5), 30% glycerol, 700 mM NaCl, 5 mM 2-mercaptoethanol, and 0.05% Triton X-100). The Affi-Gel 10-Rad51B beads were washed 3 times with washing buffer 2 (20 mM HEPES-NaOH (pH 7.3), 30% glycerol, 90 mM NaCl, 2 mM 2-mercaptoethanol, 0.1% Triton X-100, 2 mM ammonium sulfate, and 0.1 mM EDTA). Thereafter, a 50% suspension of such Affi-Gel 10-protein was prepared, and it was then preserved at 4° C.
In order to carry out a binding assay, an Affi-Gel 10-protein suspension (30 μl) was incubated with 10 μg of an Ev1 or Rad51B protein at room temperature for 150 minutes. Affi-Gel 10-Ev1 beads were washed 4 times with 100 μl of buffer 1 (20 mM potassium phosphate (pH 8.5), 30% glycerol, 700 mM NaCl, 5 mM 2-mercaptoethanol, and 0.3% Triton X-100). Affi-Gel 10-Rad51B beads were washed 4 times with 100 μl of buffer 2 (20 mM HEPES-NaOH (pH 7.3), 30% glycerol, 90 mM NaCl, 2 mM 2-mercaptoethanol, 2 mM ammonium sulfate, 0.1 mM EDTA, and 0.35% Triton X-100). An SDS-PAGE sample treatment buffer (2×) was directly mixed with the washed beads, and the obtained mixture was then subjected to a heat treatment at 100° C. for 2 minutes. […]

Ev1 protein [6] = target: T2, Ev1 protein (Homo sapiens, UniProt Q9UI08); test: Catenation of single-stranded DNA in coexistence of DNA topoisomerase type I protein and Ev1 protein; format: biochemical; settings: 20 μM φ×174 single-stranded DNA; 37° C., 1 hour; E. coli TopoI 0.05-5 U or 2.8 nM hsTopoI
T2 construct: in accordance with the protocols used in purification of the entire-length Ev1 protein; 6xHis (N, cleaved yes); made in house; host or cells: E. coli BL21 (DE3) codon plus-RP, pET15b vector
T2 sequence (Q9UI08 1-418 isoform Q9UI08-2): B1 chain
Experimental: A 20 μM φ×174 single-stranded DNA, a 4 μM Ev1 protein, and a DNA topoisomerase type I protein in each concentration or unit number (derived from Escherichia coli or a human) were added to 10 μl of a reaction solution (20 mM HEPES, 1 mM DTT, 100 μg/ml BSA, and 1 mM MgCl2). The obtained mixture was reacted at 37° C. for 1 hour. Thereafter, the sample was subjected to a deproteination treatment using 0.2% SDS and 1.3 mg/ml proteinase K. The obtained product was separated by 0.9% agarose gel electrophoresis, and a DNA band was then stained with SYBR Gold (Invitrogen) (FIG. 13).

Ev1 protein [7] = test: Influence of Rad51B or Rad51 on catenation of single-stranded DNA by the Ev1 protein; format: biochemical; settings: 4 μM Ev1 mutant plus 4 μM Rad51B protein
Experimental: Lanes 1 and 5 indicate the results of control experiments in which neither the Ev1 nor the Rad51B protein was used. Lanes 2 and 6 indicate the results of experiments that were carried out using a 4 μM Rad51B protein in the absence of the Ev1 protein. Lanes 3 and 7 indicate the results of experiments that were carried out using a 4 μM Ev1 protein in the absence of the Rad51B protein. Lanes 4 and 8 indicate the results of experiments that were carried out using a 4 μM Ev1 protein and a 4 μM Rad51B protein. Further, lanes 1-4 indicate the results of experiments that were carried out in the presence of ATP, and lanes 5-8 indicate the results of experiments that were carried out in the absence of ATP. […] Lanes 1 and 5 indicate the results of control experiments in which neither the Ev1 nor the Rad51 protein was used. Lanes 2 and 6 indicate the results of experiments that were carried out using a 4 μM Rad51 protein in the absence of the Ev1 protein. Lanes 3 and 7 indicate the results of experiments that were carried out using a 4 μM Ev1 protein in the absence of the Rad51 protein. Lanes 4 and 8 indicate the results of experiments that were carried out using a 4 μM Ev1 protein and a 4 μM Rad51 protein. Further, lanes 1-4 indicate the results of experiments that were carried out in the presence of ATP, and lanes 5-8 indicate the results of experiments that were carried out in the absence of ATP.
The Rad51B protein was mixed in a concentration of 0.5 to 8 μM with a 4 μM Ev1 protein, and the activity was then measured. Lane 1 indicates the results of a control experiment in which neither the Rad51B protein nor the Ev1 protein was added, and lane 8 indicates the results of a control experiment in which a 8 μM Rad51B protein was added and no Ev1 protein was added. Lanes 2-7 indicate the results of experiments in which the Rad51B protein was added in concentrations of 0 μM, 0.5 μM, 1.0 μM, 2.0 μM, 4.0 μM, and 8.0 μM, respectively, in the presence of 4 μM Ev1.
as §2

Molecule | binding to single-stranded DNA [1] | binding to supercoiled double-stranded DNA [2] | change of supercoiled double-stranded DNA [3] | ssDNA catenation activity (multimer formation of circular single-stranded DNA) [4] | binding of Ev1 protein to Rad51B (pull-down) [5] | effect on catenation of single-stranded DNA molecules in coexistence with the Ev1 protein (Ev1 protein [6]) | ssDNA catenation activity with Rad51B protein added (Ev1 protein [7])
B1 | efficiently binds | efficiently binds | the supercoiled double-stranded DNA was not particularly changed | the circular single-stranded DNA formed a multimer | directly binds to Rad51B |  | 
B2 |  |  |  |  |  | promoted | 
B3 |  |  |  | did not exhibit such ssDNA catenation activity |  |  | no activity was detected
